In patent US20190201491A1:
[ ]: non-standard residue; d: D form. Phe(4-Ac) = CC(=O)c1ccc(C[C@H](N)C(=O)O)cc1

B1: bFGF-21-K91-30KPEG (ligand)
chain: HPIPDSSPLLQFGGQVRQRYLYTDDAQETEAHLEIRADGTVVGAARQSPESLLELKALKPGVIQILGVKTSRFLCQGPDGKLYGSLHFDP[Phe(4-Ac)](PEG 30 kDa)ACSFRELLLEDGYNVYQSETLGLPLRLPPQRSSNRDPAPRGPARFLPLPGLPAAPPDPPGILAPEPPDVGSSDPLSMVEPSYGRSPSYTS
modifications: not fully specified; also: PEG: linear aminooxy-PEG
B2: bFGF-21-R131-30KPEG (ligand)
chain: HPIPDSSPLLQFGGQVRQRYLYTDDAQETEAHLEIRADGTVVGAARQSPESLLELKALKPGVIQILGVKTSRFLCQGPDGKLYGSLHFDPKACSFRELLLEDGYNVYQSETLGLPLRLPPQRSSNRDPAP[Phe(4-Ac)](PEG 30 kDa)GPARFLPLPGLPAAPPDPPGILAPEPPDVGSSDPLSMVEPSYGRSPSYTS
modifications: not fully specified; also: PEG: linear aminooxy-PEG
B3: bFGF-21-Q108-30KPEG (ligand)
chain: HPIPDSSPLLQFGGQVRQRYLYTDDAQETEAHLEIRADGTVVGAARQSPESLLELKALKPGVIQILGVKTSRFLCQGPDGKLYGSLHFDPKACSFRELLLEDGYNVY[Phe(4-Ac)](PEG 30 kDa)SETLGLPLRLPPQRSSNRDPAPRGPARFLPLPGLPAAPPDPPGILAPEPPDVGSSDPLSMVGPSYGRSPSYTS
B4: bFGF-21-Q108-30KPEG G170A (ligand)
chain: HPIPDSSPLLQFGGQVRQRYLYTDDAQETEAHLEIRADGTVVGAARQSPESLLELKALKPGVIQILGVKTSRFLCQGPDGKLYGSLHFDPKACSFRELLLEDGYNVY[Phe(4-Ac)](PEG 30 kDa)SETLGLPLRLPPQRSSNRDPAPRGPARFLPLPGLPAAPPDPPGILAPEPPDVGSSDPLSMVAPSYGRSPSYTS
B5: bFGF-21-Q108pAF-30KPEG-G170E (ligand)
chain: HPIPDSSPLLQFGGQVRQRYLYTDDAQETEAHLEIRADGTVVGAARQSPESLLELKALKPGVIQILGVKTSRFLCQGPDGKLYGSLHFDPKACSFRELLLEDGYNVY[Phe(4-Ac)](PEG 30 kDa)SETLGLPLRLPPQRSSNRDPAPRGPARFLPLPGLPAAPPDPPGILAPEPPDVGSSDPLSMVEPSYGRSPSYTS
B6: bFGF-21-Q108-30KPEG G170D (ligand)
chain: HPIPDSSPLLQFGGQVRQRYLYTDDAQETEAHLEIRADGTVVGAARQSPESLLELKALKPGVIQILGVKTSRFLCQGPDGKLYGSLHFDPKACSFRELLLEDGYNVY[Phe(4-Ac)](PEG 30 kDa)SETLGLPLRLPPQRSSNRDPAPRGPARFLPLPGLPAAPPDPPGILAPEPPDVGSSDPLSMVDPSYGRSPSYTS
B7: bFGF-21-Q108-30KPEG G170S (ligand)
chain: HPIPDSSPLLQFGGQVRQRYLYTDDAQETEAHLEIRADGTVVGAARQSPESLLELKALKPGVIQILGVKTSRFLCQGPDGKLYGSLHFDPKACSFRELLLEDGYNVY[Phe(4-Ac)](PEG 30 kDa)SETLGLPLRLPPQRSSNRDPAPRGPARFLPLPGLPAAPPDPPGILAPEPPDVGSSDPLSMVSPSYGRSPSYTS
B8: bFGF-21-G77-30KPEG (ligand)
chain: HPIPDSSPLLQFGGQVRQRYLYTDDAQETEAHLEIRADGTVVGAARQSPESLLELKALKPGVIQILGVKTSRFLCQ[Phe(4-Ac)](PEG 30 kDa)PDGKLYGSLHFDPKACSFRELLLEDGYNVYQSETLGLPLRLPPQRSSNRDPAPRGPARFLPLPGLPAAPPDPPGILAPEPPDVGSSDPLSMVEPSYGRSPSYTS
modifications: not fully specified; also: PEG: linear aminooxy-PEG

Biological target: beta Klotho and FGFR1c (Fibroblast Growth Factor Receptor isoform 1c) expressed on the cell surface of a proprietary stable cell line (HEK293)
Test: cell-based or functional assay

Binder	EC50 (ng/mL), STEADY-GLO Elk1 luciferase reporter assay [ng/mL]	Emax (%) relative to WT bFGF-21, Elk1 luciferase reporter assay [%]	Fold loss potency relative to WT bFGF21, Elk1 luciferase reporter assay [fold]	Average Fold Loss Potency Relative to bFGF-21-Q108-30KPEG, Elk1 luciferase reporter assay [fold]
B1	537	57	14	–
B2	556	38	14	–
B3	147	73	4	1
B4	–	–	–	1.7
B5	–	–	–	3.7
B6	–	–	–	8.7
B7	–	–	–	0.8
B8	347	50	9	–
